# Laboratory results published in patent US20160289321A1 (SHANGHAI HENGRUI PHARMACEUTICAL, published 2016).
# Where two headings read alike, the source gives them in different places.
# T1: Rat IL-17A (rat, UniProt Q61453 18-150, limits assumed)
# T1 sequence (looked up): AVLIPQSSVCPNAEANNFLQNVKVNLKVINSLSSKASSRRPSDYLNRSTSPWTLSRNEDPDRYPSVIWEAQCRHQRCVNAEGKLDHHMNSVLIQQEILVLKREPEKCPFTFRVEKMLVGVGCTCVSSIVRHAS
# T2: Mouse IL-17A (Mu IL-17A) (mouse, UniProt Q62386 26-158)
# T2 sequence (looked up): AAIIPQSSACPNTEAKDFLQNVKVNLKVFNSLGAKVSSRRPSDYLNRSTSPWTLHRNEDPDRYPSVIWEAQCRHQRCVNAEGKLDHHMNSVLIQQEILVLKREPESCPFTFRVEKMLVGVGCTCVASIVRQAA
# Experiments:
# Rat IL-17A = target: T1, Rat IL-17A; assay: SPR (Biacore X100), antibody captured on the chip, rat IL-17 as analyte
# Experimental: (§1) 2. Binding kinetics Test: FC1 (Flow cell 1) was used as the reference channel, FC2 (Flow cell 2) was used as the sample channel, and murine or humanized control antibody or the antibody of the present invention was captured in the FC2 channel at 300RU, followed by the injection of different concentrations of IL-17 (including hIL-17A, MuIL-17, Rat IL-17). Cycle conditions were: injecting analytes into all FC channels at 30 μl/min for 3min, dissociation for 20 min, injecting 10 mM Glycine, pH 1.5, for 60 s (at rate of 10 μl/min) for surface regeneration. The difference between the signal with captured antibody and the signal without captured antibody was calculated using Biacore X100 evaluation software ver 2.0 (Biacore), and the running buffer was 10 mM Hepes, […], 3 mM EDTA, 0.05% Tween-20.
# (§2) 2. Humanized IL-17 antibodies obtained from Example 2 were tested using the above method, and the results were as follows: […]
# Cyno IL-17A = Cyno IL-17A (cynomolgus, UniProt A0A2K5TTB0 24-155); assay: cell-based or functional assay
# [1] = target: T3, Recombinant human IL-17A (rhIL-17A), R&D Systems Cat.No.317-ILB (human, UniProt Q16552 20-155, limits assumed); assay: cell-based or functional assay
# [2] = target: T4, Recombinant human IL-17A/F (rhIL-17A/F), R&D System Cat No.5194-IL/CF (human, UniProt Q16552 20-155; Q96PD4 31-163, limits assumed); assay: cell-based or functional assay
# Mouse IL-17A (Mu IL-17A) = target: T2, Mouse IL-17A (Mu IL-17A); assay: SPR (Biacore X100), antibody captured on the chip, mouse IL-17 as analyte
# Experimental: as §1, §2
# [3] = target: T5, Human IL-17A (hIL-17A), expressed in HEK293E (human, UniProt Q16552 24-155); assay: SPR (Biacore X100), antibody captured on the chip, IL-17A as analyte
# Experimental: as §1, §2
# [4] = target: T3, Recombinant human IL-17A (rhIL-17A), …; assay: cell-based or functional assay; remark: listed apart in the source
# [5] = target: T4, Recombinant human IL-17A/F …; assay: cell-based or functional assay; remark: listed apart in the source
# biotin-labeled IL-17A = target: T6, biotin-labeled IL-17A (human, UniProt Q16552 24-155, limits assumed, biotin-labeled (sites not given)); assay: receptor blocking ELISA (RBA): antibody titrated against biotin-labeled IL-17A binding to captured IL-17RA-Fc
# T6 construct: also called huIL-17
# Experimental: 6. The positive controls, Lilly mAb and Novartis mAb, or antibodies of the present invention were diluted at a 1:5 ratio, with an initial concentration of 40 μg/ml. mIgG was diluted using the same method. 50 μl of diluted positive control, murine antibody of the present invention, or mIgG were added to each well, and, 50 μof 0.2nM biotin-labeled IL-17A were added to the wells containing diluted positive control or the antibody of the present invention, mixed gently and the plates were thermostatically incubated at 37° C. for 1 h.
# 7. The plates were washed with PBST three times; 8. 100 μl of HRP-labeled streptavidin complex (1:5000) were added to each well, and the plates were thermostatically incubated at 37° C. for 1 h;
# [6] = target: T5, Human IL-17A (hIL-17A), expressed in …; assay: indirect ELISA, hIL-17A or hIL-17A/F on streptavidin plates, OD450 against Lilly mAb and Novartis mAb
# Experimental: 6. The positive controls, Lilly mAb and Novartis mAb, or murine mAbs antibodies of the present invention were titrated at a 1:5 dilution, with an initial concentration of 1 μg/ml. 100 μl of diluted positive control or murine antibody of the present invention were added to each well, and the plates were thermostatically incubated at 37° C. for 1 h. Each concentration was tested in duplicate;
# 10. The OD value at a wavelength of 450 nm was read on an ELISA microplate reader (Molecular Devices, Spectra Max).
# 11. The OD values of the murine mAb antibodies were compared to those of the positive controls. Monoclonal cell lines with a ratio greater than 1, including IL17-mAb049, were screened.
# [7] = target: T5, Human IL-17A (hIL-17A), expressed in …; assay: SPR (Biacore X100), antibody captured on the chip, IL-17A as analyte; remark: listed apart in the source
# Experimental: as §1
# 1. Hybridomas obtained in Example 1 were tested using the above method, and the results were as follows: […]
# T4 sequence (Q16552 20-155 limits assumed, chain 1 of 2): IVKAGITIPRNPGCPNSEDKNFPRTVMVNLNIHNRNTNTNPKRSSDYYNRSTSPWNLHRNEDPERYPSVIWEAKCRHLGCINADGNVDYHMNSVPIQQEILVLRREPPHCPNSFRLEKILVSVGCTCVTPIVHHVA
# T4 sequence (Q96PD4 31-163 limits assumed, chain 2 of 2): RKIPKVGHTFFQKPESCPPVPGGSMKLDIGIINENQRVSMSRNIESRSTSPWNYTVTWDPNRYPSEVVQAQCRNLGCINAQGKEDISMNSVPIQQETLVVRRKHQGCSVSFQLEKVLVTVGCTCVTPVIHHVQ
# T3 sequence (Q16552 20-155 limits assumed): as the sequence (Q16552 20-155 limits assumed, chain 1 of 2) above
# T5 sequence (Q16552 24-155 limits assumed): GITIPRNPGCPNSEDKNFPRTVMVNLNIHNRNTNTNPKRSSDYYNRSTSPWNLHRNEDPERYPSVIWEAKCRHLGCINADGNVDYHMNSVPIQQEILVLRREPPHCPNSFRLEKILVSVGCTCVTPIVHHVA
# Chain of Cyno IL-17A (A0A2K5TTB0 entry or part of it): as the sequence (Q16552 24-155 limits assumed) above, with T3A, P8S, N34S, I77V, N78K, P104R counted along it
# T6 sequence (Q16552 24-155 limits assumed): as the sequence (Q16552 24-155 limits assumed) above
Binder,Kd (Rat IL-17A) [nM],Cyno IL-17A (bioassay IC50) (Cyno IL-17A) [nM],"huIL-17 Bioassay (IC50, nM) [1] [nM]","huIL-17A/F Bioassay (IC50, nM) [2] [nM]",Kd (Mouse IL-17A (Mu IL-17A)) [nM],Kd [3] [nM],"huIL-17 Bioassay (IC50, nM) [4] [nM]","huIL-17A/F Bioassay (IC50, nM) [5] [nM]",IC50 (biotin-labeled IL-17A) [nM],ratio of OD value to that of the positive controls [6],Kd [7] [nM]
"Hu049-18 (antibody, V domains shown, Humanized mAb049) VH: EVQLVQSGAEVKKPGASVKVSCKASGYTFTDYEVHWVRQAPGQGLEWMGVIDPGTGGVAYNQKFEGRVTMTADTSTSTAYMELRSLRSDDTAVYYCTRYSLFYGSSPYAMDYWGQGTLVTVSS VL: EIVLTQSPDFQSVTPKEKVTITCSASSSVNYMHWFQQKPDQSPKLWIYRTSNLASGVPSRFSGSGSGTDYTLTINSLEAEDAATYYCQQRSSYPWTFGQGTKLEIKR",0.477,0.033,0.04,0.684,0.0681,< 0.001,,,,,
"Hu049-17 (antibody, V domains shown, Humanized mAb049) VH: EVQLVQSGAEVKKPGASVKVSCKASGYTFTDYEVHWVRQAPGQGLEWMGVIDPGTGGVAYNQKFEGRVTMTTDTSTSTAYMELRSLRSDDTAVYYCTRYSLFYGSSPYAMDYWGQGTLVTVSS VL: EIVLTQSPDFQSVTPKEKVTITCSASSSVNYMHWFQQKPDQSPKLWIYRTSNLASGVPSRFSGSGSGTDYTLTINSLEAEDAATYYCQQRSSYPWTFGQGTKLEIKR",1.06,0.03,0.061,0.406,0.137,< 0.001,,,,,
"Hu049-20 (antibody, V domains shown) VH: EVQLVQSGAEVKKPGASVKVSCKASGYTFTDYEVHWVRQAPGQGLEWIGVIDPGTGGVAYNQKFEGRATLTADDSTNTAYMELRSLRSDDTAVYYCTRYSLFYGSSPYAMDYWGQGTLVTVSS VL: EIVLTQSPDFQSVTPKEKVTITCSASSSVNYMHWFQQKPDQSPKLWIYRTSNLASGVPSRFSGSGSGTDYTLTINSLEAEDAATYYCQQRSSYPWTFGQGTKLEIKR",,0.028,0.065,0.674,,,,,,,
"Hu049-19 (antibody, V domains shown, Humanized mAb049) VH: EVQLVQSGAEVKKPGASVKVSCKASGYTFTDYEVHWVRQAPGQGLEWIGVIDPGTGGVAYNQKFEGRVTMTADTSTSTAYMELRSLRSDDTAVYYCTRYSLFYGSSPYAMDYWGQGTLVTVSS VL: EIVLTQSPDFQSVTPKEKVTITCSASSSVNYMHWFQQKPDQSPKLWIYRTSNLASGVPSRFSGSGSGTDYTLTINSLEAEDAATYYCQQRSSYPWTFGQGTKLEIKR",0.06,0.039,0.066,0.411,0.0771,0.00268,,,,,
"IL17-mAb049 (antibody, V domains shown, Murine monoclonal antibody from a hybridoma; also called murine IL-17A mouse antibody mAb049) VH: HVQLQQSGADLVRPGASVTLSCKASGYIFTDYEVHWVKQTPVHGLEWIGVIDPGTGGVAYNQKFEGKATLTADDSSNTAYMELRSLTSEDSAVYYCTRYSLFYGSSPYAMDYWGQGTSVTVSS VL: QIVLTQSPAIMSASPGEKVTITCSASSSVNYMHWFQQKPGTSPKLWIYRTSNLASGVPVRFSGSGSGTSYSLTISRMEAEDAATYYCQQRSSYPWTFGGGTNLEIK",,,,,,,0.04,0.46,0.07,1,0.0262
